The test has as its target myc-tagged murine CARD11 L225LI (murine) (UniProt Q8CIS0). In words: co-IP.

“myc-tagged murine CARD11 L225LI (from UniProt Q8CIS0 1-1159) (natural protein)”: the fold increase in apparent oligomerization against wild-type CARD11 was 3 fold.

These data come from paper PMC2943563.
